Measured values: patent publication US20250152746A1, “BASE EDITING OF ANGPTL3 AND METHODS OF USING SAME FOR TREATMENT OF DISEASE” (Verve Therapeutics, Inc., priority 2020, published 2025)

B1: GA087: PCSK9 gRNA for ABE8.8 splice site editing, Human/Cyno (nucleic acid)
guide: UCACCTGCTCCTGAGGGGCCGTTTTAGAGCTAGAAATAGCAAGTTAAAATAAGGCTAGTCCGTTATCAACTTGAAAAAGTGGCACCGAGTCGGTGCTTTT
modifications: 2'-O-methyl at 1, 2, other sugars and backbone not given here; further chemistry not fully specified
notes: PCSK9 gRNA for ABE8.8 splice site editing, Human/Cyno
B2: GA080: PCSK9 gRNA for ABE8.8 splice site editing, Human/Cyno (nucleic acid)
guide: CCTTTCCAGGTCATCACAGTGTTTTAGAGCTAGAAATAGCAAGTTAAAATAAGGCTAGTCCGTTATCAACTTGAAAAAGTGGCACCGAGTCGGTGCTTTT
modifications: 2'-O-methyl at 1, 2, other sugars and backbone not given here; further chemistry not fully specified
notes: as for B1
B3: GA088: PCSK9 gRNA for ABE8.8 splice site editing, Human/Cyno (nucleic acid)
guide: CCCAGGCTGCAGCTCCCACTGTTTTAGAGCTAGAAATAGCAAGTTAAAATAAGGCTAGTCCGTTATCAACTTGAAAAAGTGGCACCGAGTCGGTGCTTTT
modifications: 2'-O-methyl at 1, 2, other sugars and backbone not given here; further chemistry not fully specified
notes: as for B1
B4: GA073: PCSK9 gRNA; protospacer GCTTACCTGTCTGTGGAAGC (SEQ ID NO: 67), splice donor of intron 4 (nucleic acid)
guide: GCTTACCTGTCTGTGGAAGCGTTTTAGAGCTAGAAATAGCAAGTTAAAATAAGGCTAGTCCGTTATCAACTTGAAAAAGTGGCACCGAGTCGGTGCTTTT
modifications: listed as RNA; modified_base 1: mod_base = OTHER; note = 2'-O-Methyl-guanosine phosphorothioate; modified_base 2: mod_base = OTHER; note = 2'-O-Methyl-cytidine phosphorothioate; modified_b
B5: GA081: PCSK9 gRNA for ABE8.8 splice site editing, Human/Cyno (nucleic acid)
guide: TTTCCAGGTCATCACAGTTGGTTTTAGAGCTAGAAATAGCAAGTTAAAATAAGGCTAGTCCGTTATCAACTTGAAAAAGTGGCACCGAGTCGGTGCTTTT
modifications: listed as RNA; modified_base 1: mod_base = OTHER; note = 2'-O-Methyl-uridine phosphorothioate; modified_base 2: mod_base = OTHER; modified_base
notes: as for B1
B6: GA077: PCSK9 gRNA for ABE8.8 splice site editing, Human/Cyno (nucleic acid)
guide: UCCCAGGCCTGGAGTTTATTGTTTTAGAGCTAGAAATAGCAAGTTAAAATAAGGCTAGTCCGTTATCAACTTGAAAAAGTGGCACCGAGTCGGTGCTTTT
modifications: 2'-O-methyl at 1, 2, other sugars and backbone not given here; further chemistry not fully specified
notes: as for B1
B7: GA074: PCSK9 gRNA; protospacer TGCTTACCTGTCTGTGGAAG (SEQ ID NO: 68), splice donor of intron 4 (nucleic acid)
guide: TGCTTACCTGTCTGTGGAAGGTTTTAGAGCTAGAAATAGCAAGTTAAAATAAGGCTAGTCCGTTATCAACTTGAAAAAGTGGCACCGAGTCGGTGCTTTT
modifications: listed as RNA; modified_base 1: mod_base = OTHER; note = 2'-O-Methyl-uridine phosphorothioate; modified_base 2: mod_base = OTHER; note = 2'-O-Methyl-guanosine phosphorothioate; modified_ba
B8: GA079: PCSK9 gRNA for ABE8.8 splice site editing, Human/Cyno (nucleic acid)
guide: CTTTCCAGGTCATCACAGTTGTTTTAGAGCTAGAAATAGCAAGTTAAAATAAGGCTAGTCCGTTATCAACTTGAAAAAGTGGCACCGAGTCGGTGCTTTT
modifications: listed as RNA; modified_base 1: mod_base = OTHER; note = 2'-O-Methyl-cytidine phosphorothioate; modified_base 2: mod_base = OTHER; note = 2'-O-Methyl-uridine phosphorothioate; modified_bas
notes: as for B1
B9: GA072: PCSK9 gRNA for ABE8.8 splice site editing, Human/Cyno (nucleic acid)
guide: GGTGGCTCACCAGCTCCAGCGTTTTAGAGCTAGAAATAGCAAGTTAAAATAAGGCTAGTCCGTTATCAACTTGAAAAAGTGGCACCGAGTCGGTGCTTTT
modifications: 2'-O-methyl at 1, 2, other sugars, backbone and T or U not given here; further chemistry not fully specified
notes: as for B1

Columns and labels:
ANGPTL3 = details: phase I clinical trials; cited from earlier work
PCSK9 gene splice site [1] = type: cell-based, human; details: for editing activities, ranking of guides: ABE8.8 mRNA MA002
Description: (§1) PCSK9 gRNAs were co-transfected with an equivalent amount of in vitro transcribed ABE8.8 mRNA MA002 (1:1 ratio by weight) into primary hepatocytes and processed as described in detailed methods. In one set of experiments, extracted genomic DNA was analyzed for base editing of the target splice site with next-generation sequencing of PCR amplicons generated around the target sites. Samples were prepared using the Nextera XT DNA library preparation kit (Illumina) according to the manufacturer's protocol. Briefly, two rounds of PCR were performed first to amplify the region of interest and second to add DNA sequences required for next generation sequencing and sample identification to the initial product. The final amplicon was sequenced on the Illumina MiSeq instrument according to the manufacturer's protocol.
(§2) Similarly, three gRNAs (GA098, GA099, GA100) were synthesized matching the 5′-[…]-3′ (SEQ ID NO: 15) (GA091) human protospacer sequence, as well as four gRNAs (GA067/GA101, GA102, GA103, GA347) matching the 5′-[…]-3′ (SEQ ID NO: 14) (GA067) cynomolgus protospacer sequence, but with more extensive chemical modifications of various kinds (Table 1). GA066 and GA095 contain the same chemical composition and modification pattern, as do GA067 and GA101 with one another. […] Each of the gRNAs described in Table 8, with an equivalent amount of in vitro transcribed ABE8.8 mRNA MA002 (1:1 ratio by weight), were co-transfected into primary human hepatocytes and primary cynomolgus hepatocytes via MessengerMax reagent, using various dilutions to assess for editing activity at different concentrations of test article. Three days after transfection, genomic DNA was harvested from the hepatocytes, and then assessed for base editing of the target splice site with next-generation sequencing.
Modifications and/or truncations to either the spacer or tracr portion of the gRNA was assessed by alteration of the GA066 spacer (5′-[…]-3′ (SEQ ID NO: 13)) (Table 12). […] Each of the gRNAs with an equivalent amount of in vitro transcribed ABE8.8 mRNA (1:1 ratio by weight) were co-transfected into primary human hepatocytes and primary cynomolgus hepatocytes and processed as described in detailed methods. […]

PCSK9 gene splice site [2] = type: cell-based, cynomolgus monkey
Description: as §1, §2
Modifications and/or truncations to either the spacer or tracr portion of the gRNA was assessed by alteration of the GA066 spacer (5′-[…]-3′ (SEQ ID NO: 13)) (Table 12). […] Each of the gRNAs with an equivalent amount of in vitro transcribed ABE8.8 mRNA (1:1 ratio by weight) were co-transfected into primary human hepatocytes and primary cynomolgus hepatocytes and processed as described in detailed methods.
Lipid nanoparticles containing ABE8.8 mRNA and a gRNA matching the human/cynomolgus 5′-[…]-3′ (SEQ ID NO: 13) sequence (GA066) that targets the splice donor at the 5′ end of PCSK9 intron 1 were formulated at a 1:1 ratio by weight. The LNPs were administered to primary human hepatocytes and primary cynomolgus hepatocytes, using various dilutions to assess for editing activity at different concentrations of test article. LNP containing Cas9 mRNA and a gRNA matching a protospacer sequence in another gene, ANGPTL3, as a positive control was used for these experiments.
Plating, culturing, and transfection of primary hepatocytes. Primary human liver hepatocytes (PHH) and primary cynomolgus liver hepatocytes (PCH) from BioIVT were cultured per the manufacturer's protocol. Briefly, primary human hepatocytes and primary cyno hepatocytes were obtained as frozen aliquots from BioIVT.

Molecule | lipid lowering effect (ANGPTL3) | Human Primary Hepatocytes-splice site editing % 1250 ng/mL (PCSK9 gene splice site [1]) [%] | Human Primary Hepatocytes-splice site editing % 2500 ng/mL (PCSK9 gene splice site [1]) [%] | Human Primary Hepatocytes-splice site editing % 5000 ng/mL (PCSK9 gene splice site [1]) [%] | Cynomolgous Primary Hepatocytes-splice site editing % 1250 ng/mL (PCSK9 gene splice site [2]) [%] | Cynomolgous Primary Hepatocytes-splice site editing % 2500 ng/mL (PCSK9 gene splice site [2]) [%] | Cynomolgous Primary Hepatocytes-splice site editing % 5000 ng/mL (PCSK9 gene splice site [2]) [%] | editing activities, ranking of guides (PCSK9 gene splice site [1])
evinacumab | significant lipid lowering effect | – | – | – | – | – | – | –
B1 | – | 1.0 | 1.4 | 1.9 | 0.2 | 0.2 | 0.2 | –
B2 | – | 0.4 | 0.5 | 0.6 | 7.1 | 8.8 | 7.0 | –
B3 | – | 3.6 | 6.2 | 7.2 | 17.0 | 23.0 | 24.8 | –
B4 | – | 11.2 | 17.5 | 25.4 | 24.7 | 23.2 | 29.2 | performing the best
B5 | – | 4.3 | 6.1 | 8.3 | 0.3 | 0.3 | 0.3 | –
B6 | – | 2.8 | 5.7 | 6.0 | 4.1 | 5.7 | 5.4 | –
B7 | – | 11.6 | 18.8 | 23.8 | 17.5 | 20.1 | 18.7 | performing the best
B8 | – | 2.2 | 4.9 | 6.5 | 0.6 | 0.5 | 0.5 | –
B9 | – | 1.5 | 2.2 | 2.5 | 2.3 | 1.7 | 2.2 | –
